For the assay, the target named is T1, recombinant influenza A virus nucleoprotein (A/WSN/1933) (influenza A virus (A/WSN/1933)), P15682.
T1 chain: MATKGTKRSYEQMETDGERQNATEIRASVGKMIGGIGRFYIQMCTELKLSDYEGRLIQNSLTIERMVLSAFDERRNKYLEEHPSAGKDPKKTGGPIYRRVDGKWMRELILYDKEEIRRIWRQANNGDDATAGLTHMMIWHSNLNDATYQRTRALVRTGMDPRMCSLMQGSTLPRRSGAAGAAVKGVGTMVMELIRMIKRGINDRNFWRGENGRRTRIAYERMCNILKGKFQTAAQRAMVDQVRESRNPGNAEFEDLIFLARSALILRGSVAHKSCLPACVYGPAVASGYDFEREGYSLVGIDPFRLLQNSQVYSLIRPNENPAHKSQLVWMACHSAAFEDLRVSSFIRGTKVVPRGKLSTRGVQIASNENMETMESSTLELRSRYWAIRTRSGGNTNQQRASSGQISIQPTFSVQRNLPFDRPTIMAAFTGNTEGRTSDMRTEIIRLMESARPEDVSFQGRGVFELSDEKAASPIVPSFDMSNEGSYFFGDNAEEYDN
Put plainly: negative staining EM; freshly assembled RNP-like mixture (NP with 12-nt RNA) diluted to 0.05 mg/ml, 2% sodium silicotungstate pH 7.0. The settings on record: remark: other sources report otherwise.

Values joined by “and” are separate entries in the source; they are usually repeats but may differ in a detail not shown here. Equal values may be shown once.

B1: recombinant influenza A virus nucleoprotein (A/WSN/1933), P15682 (natural protein)
chain: T1 chain
Consider B1, for which the stoichiometry N was 3 and 4.

The values are drawn from PMC10848707.
